The values below come from US20130129707A1, “ANTIMICROBIAL ACTIVITY ENHANCING AGENT” (priority 2010, published 2013).

Common to all, as to format: cell-based
Assay [1] has as its system Escherichia coli K-12 strain (NBRC 3301). Nature of the assay: Antimicrobial activity enhancement test (colony count, CFU). The following applies: culture 17 hours. How it is done:
In the antimicrobial activity enhancement test, antimicrobial activity of a sample obtained by mixing the antimicrobial activity enhancing agent of the present invention with lactoferrin or a lactoferrin hydrolysate was measured. As a control, antimicrobial activity of a sample containing only lactoferrin or a lactoferrin hydrolysate was also measured.
By using 1% Bacto peptone medium, Escherichia coli K-12 strain was inoculated into the medium contained in a polystyrene tube with a 5 ml capacity, and precultured in an incubator at 37° C. for 6 hours to obtain a cell suspension for the test. The precultured Escherichia coli was added to a 96-well plate at a cell density of 10^6 cells/mL together with each of the aforementioned samples, and cultured at 37° C. for a predetermined time. After the culture for the predetermined time, the culture medium containing Escherichia coli was serially diluted with 0.85% physiological saline, and plated on an agar medium, and culture was performed at 37° C. for a predetermined time. Then, number of colonies (colony forming units:CFU) was measured.
Antimicrobial activity of each sample was evaluated on the basis of the value of CFU. Degree of enhancement of the antimicrobial activity was calculated by comparison of the numbers of Escherichia coli (CFU) that remained after the test. For example, if CFU of Sample 1 is 100, and CFU of Sample 2 is 10 after the test, the antimicrobial activity of Sample 2 can be determined to be 10 times that of Sample 1. […]
By using 1% Bacto peptone medium (Becton Dickinson), the Escherichia coli K-12 strain (NBRC 3301) was inoculated to the medium contained in a polystyrene tube with a 5 ml capacity at a density of 10^6 CFU/mL, and precultured in an incubator at 37° C. for 6 hours to obtain a cell suspension for the test.
The cell suspension for the test was added to a 96-well plate at a cell density of 10^6 CFU/mL together with each of the aforementioned samples, and culture was performed at 37° C. for 17 hours.
After the culture for 17 hours, the culture medium containing Escherichia coli was serially diluted with 0.85% physiological saline, and plated on an agar medium (Rapid Media RM-SPC, Morinaga Milk Industry), and then culture was performed at 37° C. for 16 hours. Then, number of the formed colonies (CFU: Colony Forming Unit) was measured to evaluate the antimicrobial activity of each sample.

The test system of assay [2] is Salmonella enteritidis IID 604. Nature of the assay: Minimum inhibitory concentration (MIC), absorbance at 630 nm. The conditions noted are these: Test Example 6; MIC as lactoferrin concentration; 17 hours, 37° C. How it is done:
(§1) By using 1% Bacto peptone medium (Becton Dickinson), each of Escherichia coli 0111, Cronobacter sakazaki ATCC 12868, Salmonella enteritidis IID 604, Klebsiella pneumoniae JCM 1662T, Pseudomonas aeruginosa MMI 603, Staphylococcus aureus JCM 2151 and Staphylococcus epidermidis JCM 2414T was inoculated to the medium contained in a polystyrene tube with a 5 ml capacity at a density of 10^6 cells/mL, and precultured in an incubator at 37° C. for 6 hours to obtain a cell suspension for the test.
(§2) Each of the cell suspensions for the test was added to a 96-well plate at a cell density of 10^6 cells/mL together with each of the aforementioned samples, and culture was performed at 37° C. for 17 hours.
(§3) After the culture for 17 hours, absorbance of the medium was measured at 630 nm using a microplate reader (Corona Electric). In addition, each bacterium was cultured only with the medium as a control, besides the culture using Samples 16 to 30.

Assay [3] has as its system Staphylococcus epidermidis JCM 2414T. The description is as above. The conditions noted are these: Test Example 6; MIC as lactoferrin concentration; 17 hours, 37° C. How it is done:
as §1, §2, §3

Assay [4] relates to Streptococcus mutans JCM 5705T. Described as above. The conditions noted are these: Test Example 6; MIC as lactoferrin concentration; PYG medium; 17 hours, 37° C. How it is done: (§4) In a similar manner, by using the PYG medium (1% Bacto peptone, 0.05% yeast extract (Becton Dickinson), 1% glucose (Wako Pure Chemical Industries)), Streptococcus mutans JCM 5705T was inoculated to the medium contained in a polystyrene tube with a 5 ml capacity at a density of 10^6 cells/mL, and precultured in an incubator at 37° C. for 6 hours to obtain a cell suspension for the test. Further, by using the Sabouraud medium (1% Bacto peptone, 2% glucose), Candida albicans TIMM1768 was inoculated to the medium contained in a polystyrene tube with a 5 ml capacity at a density of 10^6 cells/mL, and precultured in an incubator at 37° C. for 6 hours to obtain a cell suspension for the test.
as §2
(§5) After the culture for 17 hours, absorbance of the medium was measured at 630 nm using a microplate reader (Corona Electric). In addition, each bacterium was cultured only with the medium as a control, besides the culture using Samples 16 to 30. […]
(§6) After the culture for 17 hours, absorbance of the medium was measured at 630 nm using a microplate reader (Corona Electric). […]

The subject of assay [5] is Candida albicans TIMM1768. The assay is described as above. The following applies: Test Example 6; MIC as lactoferrin concentration; Sabouraud medium; 17 hours, 37° C. As to the method: as §4, §2, §5, §6
Assay [6] has as its system Cronobacter sakazaki ATCC 12868. The description is as above. The following applies: Test Example 6; MIC as lactoferrin concentration; 17 hours, 37° C. As to the method: as §1, §2, §3
as §4, with “By using 1% Bacto peptone medium (Becton Dickinson), each of Escherichia coli 0111, Cronobacter sakazaki ATCC 12868, Klebsiella pneumoniae JCM 1662T, Pseudomonas aeruginosa MMI 603, and Staphylococcus aureus JCM 2151 was inoculated to the medium contained in a polystyrene tube with a 5 ml capacity at a density of 10^6 cells/mL, and precultured in an incubator at 37° C. for 6 hours to obtain a cell suspension for the test. In a” for “In a”
(§7) After the culture for 17 hours, absorbance of the medium was measured at 630 nm using a microplate reader (Corona Electric). In addition, each bacterium was cultured only with the medium as a control, besides the culture using Samples 31 to 41.

The subject of assay [7] is Klebsiella pneumoniae JCM 1662T. The description is as above. The following applies: Test Example 6; MIC as lactoferrin concentration; 17 hours, 37° C. As to the method: as §1, §2, §3
as §4, with “By using 1% Bacto peptone medium (Becton Dickinson), each of Escherichia coli 0111, Cronobacter sakazaki ATCC 12868, Klebsiella pneumoniae JCM 1662T, Pseudomonas aeruginosa MMI 603, and Staphylococcus aureus JCM 2151 was inoculated to the medium contained in a polystyrene tube with a 5 ml capacity at a density of 10^6 cells/mL, and precultured in an incubator at 37° C. for 6 hours to obtain a cell suspension for the test. In a” for “In a”
as §7

Assay [8] deals with Pseudomonas aeruginosa MMI 603. Described as above. The following applies: Test Example 6; MIC as lactoferrin concentration; 17 hours, 37° C. As to the method:
as §1, §2, §3
as §4, with “By using 1% Bacto peptone medium (Becton Dickinson), each of Escherichia coli 0111, Cronobacter sakazaki ATCC 12868, Klebsiella pneumoniae JCM 1662T, Pseudomonas aeruginosa MMI 603, and Staphylococcus aureus JCM 2151 was inoculated to the medium contained in a polystyrene tube with a 5 ml capacity at a density of 10^6 cells/mL, and precultured in an incubator at 37° C. for 6 hours to obtain a cell suspension for the test. In a” for “In a”
as §7

Assay [9] deals with Staphylococcus aureus JCM 2151. Described as above. The following applies: Test Example 6; MIC as lactoferrin concentration; 17 hours, 37° C. As to the method:
as §1, §2, §3
as §4, with “By using 1% Bacto peptone medium (Becton Dickinson), each of Escherichia coli 0111, Cronobacter sakazaki ATCC 12868, Klebsiella pneumoniae JCM 1662T, Pseudomonas aeruginosa MMI 603, and Staphylococcus aureus JCM 2151 was inoculated to the medium contained in a polystyrene tube with a 5 ml capacity at a density of 10^6 cells/mL, and precultured in an incubator at 37° C. for 6 hours to obtain a cell suspension for the test. In a” for “In a”
as §7

For assay [10], the system named is Escherichia coli O111. The description is as above. The following applies: Test Example 6; MIC as lactoferrin concentration; 17 hours, 37° C. How it is done:
as §1, §2, §3
as §4, with “By using 1% Bacto peptone medium (Becton Dickinson), each of Escherichia coli 0111, Cronobacter sakazaki ATCC 12868, Klebsiella pneumoniae JCM 1662T, Pseudomonas aeruginosa MMI 603, and Staphylococcus aureus JCM 2151 was inoculated to the medium contained in a polystyrene tube with a 5 ml capacity at a density of 10^6 cells/mL, and precultured in an incubator at 37° C. for 6 hours to obtain a cell suspension for the test. In a” for “In a”
as §7

B1: Sample 14: Angiogenin-1 (32 μg/mL), bovine, about 15 kDa, separated by gel filtration HPLC in Example 5 (SEQ ID NO: 4) (protein, listed as Bos taurus)
chain: AQDDYRYIHFLTQHYDAKPKGRNDEYCFNMMKNRRLTRPCKDRNTFIHGNKNDIKAICEDRNGQPYRGDLRISKSEFQITICKHKGGSSRPPCRYGATEDSRVIVVGCENGLPVHFDESFITPRH
With B1, in assay [1] (Test Example 5), the “Change of Log10 CFU relative to control” value was determined as 0.160, the “Survival rate based on control” value came to 144.654% and the “antimicrobial activity (in words)” value is “do not have antimicrobial activity”.

B2: angiogenin-2: bovine angiogenin-2, about 17 kDa component of peak α in Example 5 (SEQ ID NO: 7) (protein, listed as Bos taurus)
chain: QNDAYRGFLRKHYDPSPTGHDDRYCNTMMERRNMTRPCKDTNTFIHGNSDDIRAVCDDRNGEPYRNGLRRSRSPFQVTTCRHRGGSPRPPCRYRAFRANRVIVIRCRDGFPIHLEENFIPPRP
Take B2: the “antimicrobial activity (in words)” value in assay [1] (Test Example 5) is recorded as “do not have antimicrobial activity”.

B3: LF: bovine lactoferrin (Morinaga Milk Industry) diluted with deionized water; 2 mg/mL in Samples 1 and 11 (protein, UniProt P24627 20-708, looked up)
Lactotransferrin: APRKNVRWCTISQPEWFKCRRWQWRMKKLGAPSITCVRRAFALECIRAIAEKKADAVTLDGGMVFEAGRDPYKLRPVAAEIYGTKESPQTHYYAVAVVKKGSNFQLDQLQGRKSCHTGLGRSAGWIIPMGILRPYLSWTESLEPLQGAVAKFFSASCVPCIDRQAYPNLCQLCKGEGENQCACSSREPYFGYSGAFKCLQDGAGDVAFVKETTVFENLPEKADRDQYELLCLNNSRAPVDAFKECHLAQVPSHAVVARSVDGKEDLIWKLLSKAQEKFGKNKSRSFQLFGSPPGQRDLLFKDSALGFLRIPSKVDSALYLGSRYLTTLKNLRETAEEVKARYTRVVWCAVGPEEQKKCQQWSQQSGQNVTCATASTTDDCIVLVLKGEADALNLDGGYIYTAGKCGLVPVLAENRKSSKHSSLDCVLRPTEGYLAVAVVKKANEGLTWNSLKDKKSCHTAVDRTAGWNIPMGLIVNQTGSCAFDEFFSQSCAPGADPKSRLCALCAGDDQGLDKCVPNSKEKYYGYTGAFRCLAEDVGDVAFVKNDTVWENTNGESTADWAKNLNREDFRLLCLDGTRKPVTEAQSCHLAVAPNHAVVSRSDRAAHVKQVLLHQQALFGKNGKNCPDKFCLFKSETKNLLFNDNTECLAKLGGRPTYEEYLGTEYVTAIANLKKCSTSPLLEACAFLTR
As usually defined, the MIC is the lowest concentration that inhibits growth of the organism. On to B3, for which the minimum inhibitory concentration (MIC) in [2] is recorded as 4 mg/mL; in [3] it was 1 mg/mL; in assay [4], above 8 mg/mL; in [5], 1 mg/mL; in assay [6], 8 mg/mL; in [7], 8 mg/mL. Moreover, the minimum inhibitory concentration (MIC) in assay [8] is given as 8 mg/mL; in assay [9] it was 0.5 mg/mL; in assay [10], 2 mg/mL. Moreover, the entries for the “Change of Log10 CFU relative to control” value in assay [1] (Test Example 2) and in assay [1] (Test Example 5) were −2.472 and −2.657, respectively. In addition, the “Survival rate based on control” value in [1] (Test Example 2) is 0.337%; in assay [1] (Test Example 5), 0.220%.
